From the supplement of paper PMC9112550, “Optimization of the antimicrobial peptide Bac7 by deep mutational scanning” (BMC Biology, 2022)

Each sequence was assayed on Escherichia coli TOP10 (assay: shrunken log2 fold change of peptide-encoding DNA abundance (4.5 h post-induction vs induction); higher = less antimicrobial activity (less host growth inhibition)). Details: time post-induction: 4.5 h; library: site-saturation at positions 5, 18, 19, 20.
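Note: peptides expressed intracellularly from a pBAD plasmid library in pooled LB shake-flask culture, induced with 0.3% L-arabinose, DNA abundance read by NGS, three biological replicates, DESeq2 with apeglm shrinkage.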

Sequence	shrunken log2 fold change
RRIRHRPPRLPRPRPRPKNTPRP	-0.497
RRIRKRPPRLPRPRPRPVTWPRP	0.0106
RRIRQRPPRLPRPRPRPREDPRP	0.242
RRIRERPPRLPRPRPRPNTEPRP	0.0956
RRIRYRPPRLPRPRPRPIMKPRP	0.0367
RRIRPRPPRLPRPRPRPWKVPRP	-0.0967
RRIRWRPPRLPRPRPRPWMMPRP	0.119
RRIRLRPPRLPRPRPRPVSIPRP	-0.321
RRIRRRPPRLPRPRPRPYTRPRP	0.000194
RRIRSRPPRLPRPRPRPQFRPRP	-0.0597
RRIRLRPPRLPRPRPRPQRGPRP	0.111
RRIRNRPPRLPRPRPRPTWLPRP	0.195
RRIRGRPPRLPRPRPRPQCGPRP	0.601
RRIRARPPRLPRPRPRPKTSPRP	0.331
RRIRNRPPRLPRPRPRPQAAPRP	-0.0424
RRIRQRPPRLPRPRPRPEYMPRP	-0.0613
RRIRRRPPRLPRPRPRPKEGPRP	-0.000243
RRIRHRPPRLPRPRPRPHNMPRP	-0.364
RRIRLRPPRLPRPRPRPGIMPRP	-0.219
RRIRRRPPRLPRPRPRPCGHPRP	-0.0448
RRIRLRPPRLPRPRPRPDLIPRP	-0.0276
RRIRYRPPRLPRPRPRPSAHPRP	-0.117
RRIRGRPPRLPRPRPRPREPPRP	0.812
RRIRHRPPRLPRPRPRPAYLPRP	-0.323
RRIRHRPPRLPRPRPRPRYDPRP	-0.0205

Sequence	shrunken log2 fold change
RRIRKRPPRLPRPRPRPDMFPRP	-0.258
RRIRKRPPRLPRPRPRPHKAPRP	-0.0179
RRIRYRPPRLPRPRPRPQPQPRP	-0.0927
RRIRIRPPRLPRPRPRPNRWPRP	-0.0394
RRIRCRPPRLPRPRPRPKYLPRP	-0.34
RRIRPRPPRLPRPRPRPMQKPRP	0.0491
RRIRWRPPRLPRPRPRPYPDPRP	-0.106
RRIRCRPPRLPRPRPRPKVAPRP	-0.118
RRIRFRPPRLPRPRPRPYLYPRP	-0.498
RRIRCRPPRLPRPRPRPMLAPRP	0.379
RRIRARPPRLPRPRPRPKRSPRP	0.427
RRIRMRPPRLPRPRPRPGYDPRP	0.0865
RRIRVRPPRLPRPRPRPMETPRP	-0.074
RRIRDRPPRLPRPRPRPNGSPRP	-0.0808
RRIRERPPRLPRPRPRPIKHPRP	-0.967
RRIRQRPPRLPRPRPRPNECPRP	0.033
RRIRTRPPRLPRPRPRPWYFPRP	-0.432
RRIRMRPPRLPRPRPRPNDGPRP	-0.0703
RRIRSRPPRLPRPRPRPTRQPRP	0.215
RRIRIRPPRLPRPRPRPRQFPRP	-0.112
RRIRIRPPRLPRPRPRPDQTPRP	0.000407
RRIRPRPPRLPRPRPRPMFFPRP	-0.207
RRIRERPPRLPRPRPRPTVDPRP	-0.0352
RRIRWRPPRLPRPRPRPYTHPRP	-0.536
RRIRTRPPRLPRPRPRPWRDPRP	0.00299

Sequence	shrunken log2 fold change
RRIRNRPPRLPRPRPRPILFPRP	-0.396
RRIRHRPPRLPRPRPRPLEPPRP	-0.55
RRIRRRPPRLPRPRPRPPGDPRP	1.06
RRIRLRPPRLPRPRPRPSCLPRP	-0.392
RRIRLRPPRLPRPRPRPHWYPRP	-0.128
RRIRIRPPRLPRPRPRPLAWPRP	0.0118
RRIRRRPPRLPRPRPRPNCIPRP	0.104
RRIRPRPPRLPRPRPRPMEWPRP	-0.0225
RRIRNRPPRLPRPRPRPILSPRP	-0.00144
RRIRHRPPRLPRPRPRPLCMPRP	-0.708
RRIRKRPPRLPRPRPRPPGMPRP	0.473
RRIRMRPPRLPRPRPRPLKGPRP	-0.0357
RRIRQRPPRLPRPRPRPDTQPRP	-0.401
RRIRDRPPRLPRPRPRPFQLPRP	-0.0537
RRIRQRPPRLPRPRPRPLPSPRP	-0.0393
RRIRWRPPRLPRPRPRPHSIPRP	-0.143
RRIRPRPPRLPRPRPRPMDRPRP	0.247
RRIRKRPPRLPRPRPRPAFPPRP	0.165
RRIRVRPPRLPRPRPRPCNSPRP	-0.116
RRIRMRPPRLPRPRPRPDFWPRP	0.778
RRIRRRPPRLPRPRPRPKIIPRP	-0.364
RRIRVRPPRLPRPRPRPYLEPRP	-0.141
RRIRQRPPRLPRPRPRPDTPPRP	-0.039
RRIRLRPPRLPRPRPRPGIKPRP	-0.874
RRIRSRPPRLPRPRPRPTLRPRP	-0.197
